In patent publication US20230250157A1 (published 2023):
Where a chain is given by its changes, count along the chain named.

How the values were obtained:
Experiment in all cases: ELISA
[1] = target: BM4831 RBD
[2] = target: BtKY72 RBD
[3] = target: Pang17 RBD
[4] = target: Yun11 RBD
[5] = target: RsSTT200 RBD
[6] = target: C028 RBD
[7] = target: SHC014 RBD
[8] = target: LyRa3 RBD
[9] = target: Khosta2 RBD
[10] = target: Rs4081 RBD
[11] = target: RaTG13 RBD
[12] = target: RmYN02 RBD
[13] = target: Rf1 RBD

Measured: EC50

B1: M8a-25 (antibody, V domains shown)
VH: EVQLQQSVAELVRPGASVKLSCTASGFNIKNTYMHWVKQRPEQGLEWIGRIDPSIDHTRYAPKFQGKAVITAFTSSNTAYLQLSSLTSEDTAIYYCAREGGGNYPYYYAIDYWGQGTSVTVSS
VL: DIQMTQSSSSFSVSLGDRVTITCKASEDIYIRLAWYQQRPGNAPRLLISNAISLETGVPSRFSGSGFGKDHTLSITSLQTEDVATYYCQQYWSTPWTFGGGTKLEIK
> 10 µg/mL: [1] | [2] | [3] | [4] | [5] | [6] | [7] | [8] | [9] | [10] | [11]

B2: M8a-11 (antibody, V domains shown)
VH: EVQLQQSGPELVKPGASVKIPCKASGYTFTDYNMDWVKQSHEKSLEWIGEIDPNNGDTIYNQKFKGKASLTVDKSSSTAYMELRSLTSEDTAVYYCAKRGYYGSSLWWYFDVWGTGTTVTVSS
VL: B1 VL with F67S, H71Y
> 10 µg/mL: [1] | [2] | [3] | [5] | [6] | [7] | [8] | [9] | [11]

B3: M8a-29 (antibody, V domains shown)
VH: B1 VH
VL: DIVMTQAAFSNPVTLGTSASISCRSTKSLLHSNGITYLYWYLQKPGQSPQLLIYQMSNLASGVPDRFSSSGSGTDFTLRISRVEAEDVGVYYCAQNLELPYTFGGGTKLEIK
> 10 µg/mL: [1] | [2] | [12] | [3] | [4] | [5] | [6] | [7] | [13] | [8] | [9] | [11]

B4: M8a-6 (antibody, V domains shown)
VH: QVQLQQPGTELVMPGASVKLSCKTSGYTFTHYWMHWVKQRPGEGLEWIGEIAPSDNYVKYNQKFKGKSTLSVDRSSSTAYMQLSSLTSEDSAVYFCARPDNSGYPVYFDYWGQGTSLTVSS
VL: DIVMTQSQKFMSTSLGDRVSISCKASQDVGTTVAWYQQKPGQSPKLLIYWASTRHTGVPDRFTGTGSGTDYTLTISSVAAEDLALYYCQQHYNTPYTFGGGTKLEIE
> 10 µg/mL: [1] | [2] | [8] | [9] | [10]

B5: M8a-15 (antibody, V domains shown)
VH: QVQLQQSGPELARPGASVKLSCRASGYTVTSFGLSWMKQRTGQGLEWIGEIYPTSKNTYYNDKFRTKATLTADKSSSTAYMELRSLTSEDSAVYFCVLYDYFDYWGQGTTLTVSS
VL: QIVLTQSPAIMSASPGEKVTISCSASSSVSYMYWYQQKTGSSPKPWIYRTSNLASGVPVRFSGSGSGTSYSLTISSMEAEDAATYYCQQYQSYPRTFGGGTKLEIK
> 10 µg/mL: [1] | [2] | [3] | [5] | [6] | [7] | [8] | [9] | [10] | [11]

B6: M8a-7 (antibody, V domains shown)
VH: QAYLQQSGAEMVRPGASVKMSCKASGYTFNNYNMHWVKQTPSQGLEWIGGFYPGNDDTAYSQKFKGKATLTVDKSSSTAFMHLSSLTSEDSAVYFCARSLGRYYAMDYWGQGTSVTVSS
VL: not shown
> 10 µg/mL: [1] | [2] | [12] | [3] | [4] | [5] | [6] | [7] | [13] | [9] | [10] | [11]

B7: M8a-28 (antibody, V domains shown)
VH: QVQLQQPGAELVKPGASVKMSCKASGYNFNHYWISWVKQRPGQGLEWIGDIYPLSHFTTYNEKFTNRATLTVDTSSTTAYMQLNSLTSDDSAVFYCARWDYFDSRTFDYWGQGTTLTVSS
VL: DILLTQFPAILSVSPGERVSFSCRASQTIGTNIHWYQQRINGSPRLLIKYASESISGIPSRFSGSGSGTDFSLSINNVESEDIADYYCQQINSWPLTFGAGTKLDLK
> 10 µg/mL: [1] | [3]

B8: HSW-1 (antibody, V domains shown)
VH: QVQLQQPGAELVKPGTSMKLSCKASGYTFTSYWMHWVKQRPGQGLEWIGMIHPNSGSTKYNENFKSKATLTVDKSSSTAYMQFSSLTSEDSAVYYCVRSGSYYGTTYDYFDYWGQGTTLTVSS
VL: DIVLTQSPASLAVSLGQRATISCRASESVNIYGNSFMHWYQQKPGQPPKLLIFRASNLESGIPVRFSGSGSRTDFTLTINPVEADDVATYYCHQSNEDPFTFGSGTKLEIK
> 10 µg/mL: [1] | [4] | [9]

B9: M8a-30 (antibody, V domains shown)
VH: QVHLQQSGPELVKPGASVKISCKASGYGFSSSWMNWVKQRPGKGLEWIGRIYPGDGDTNYNDKFQGKATLTADRSSSTAYMHLTSLTSADSAVYFCARSLLYSFDYWGQGTTLTVSS
VL: DVVVTQTPLSLPVSFGDQVSISCRSSQSLAGSYGHTYLSWYLHKSGQSPQLLIYGISNRFSGVPDRFSGSGSGTDFTLKISTIKPEDLGMYYCLQGTHQPLTFGAGTKLELK
> 10 µg/mL: [1] | [5] | [6] | [9] | [11]

B10: M8a-3 (antibody, V domains shown)
VH: QVQLQQPGAELVLPGASVKLSCKASGYTFTNYWMHWVKQRPGHGLEWIGEIDPFDTYIKINQKFKGKSTLTVDTSSSTAYMQLSSLTSEDSAVYYCARPDSSGYPVYFDYWGQGTTLTVSS
VL: DIVMTQSHKFMSTSVGDRVSITCKASQDVGTYIAWYQQKPGQSPKLLIYWASTRHTGVPDRFTGSGSGTNYTLTISSVQAEDLALYHCQQHYSTPYTFGGGTKLEIK
> 10 µg/mL: [1] | [13]
